The source of these data is patent US8778645B2, “Method for the production of glutaconate” (BASF SE, priority 2009, dated 2014).

In data set [1] the target is Glutaconate CoA-transferase from A. fermentans (Acidaminococcus fermentans, UniProt Q59111+Q59112). The conditions noted are these: Buckel et al. 1981; cited from earlier work.
Data set [2] in a line: Glutaconate CoA-transferase activity in recombinant E. coli BL21. It counts as biochemical, A. fermentans. As to the method:
Glutaconate CoA-transferase activity assay was performed aerobically at room temperature. The increase of absorbance was followed at 412 nm, Δε=14 mM^−1 cm^−1.
The genes were transformed into modified E. coli BL21-CodonPlus (DE3). An overnight anaerobic preculture (100 ml) of a fresh single colony was used to inoculate 1 liter Standard I medium, described above, containing antibiotics (carbenicillin, 100 μg·ml^−1; chloramphenicol, 50 μg·ml^−1) and grown at the same conditions. When the culture reached OD578=0.2, gene expression was induced with isopropyl-1-thio-β-D-galactoside, IPTG (240 mg·liter^−1) and anhydrotetracycline, AHT (200 μg·liter^−1). Cells were harvested 3 hours after induction (at OD578=0.573), washed and suspended in 20 ml of buffer (50 mM MOPS, 5 mM MgCl2 and 2 mM DTT) under anoxic conditions. The induced E. coli cells were lysed by French press and cell debris was removed by ultracentrifugation at 100 000 g at 4° C. for 1 hour.
(§1) In Table 9 the enzymatic activities are shown, which were measured in the recombinant E. coli strain.

Substrate in data set [3]: CC(C)(COP(=O)(O)OP(=O)(O)OC[C@H]1O[C@@H](n2cnc3c(N)ncnc32)[C@H](O)[C@@H]1OP(=O)(O)O)[C@@H](O)C(=O)NCCC(=O)NCCSC(=O)[C@H](O)CCC(=O)O
Put plainly: Substrate kinetics of 2-hydroxyglutaryl-CoA dehydratase with activator. It is filed as biochemical, Clostridium symbiosum. The note with it: other: substrate of the dehydratase; pH 7.0. On the procedure:
(§2) 2-Hydroxyglutaryl-CoA dehydratase activity was measured under anoxic conditions at ambient temperature in cuvettes of 0.5 ml total volume containing 50 mM Mops/KOH pH 7.0, 10 mM dithiothreitol, 5 mM MgCl2, 0.1 mM dithionite, 0.4 mM ATP, and […] with activator. After 10 minutes of incubation the reaction was started with 2 mM acetyl-CoA and 2 mM (R)-2-hydroxyglutarate. The increase of absorbance due to the formation of glutaconyl-CoA was followed at 290 nm (ε=2.2 mM^−1 cm^−1) (Kim J, Darley D J, Buckel W, Pierik A J (2008) An allylic ketyl radical intermediate in clostridial amino-acid fermentation. Nature 452:239-242).
(§3) a) 2-Hydroxyglutaryl-CoA dehydratase from Clostridium symbiosum and activator from Acidaminococcus fermentans

Substrate in data set [4]: CC(C)(COP(=O)(O)OP(=O)(O)OC[C@H]1O[C@@H](n2cnc3c(N)ncnc32)[C@H](O)[C@@H]1OP(=O)(O)O)[C@@H](O)C(=O)NCCC(=O)NCCSC(=O)/C=C/C=C/C(=O)O
Described as above. The note with it: other: substrate of the dehydratase; pH 7.0. It is filed as biochemical, Clostridium symbiosum. As to the method: as §2, §3

Substrate in data set [5]: CC(C)(COP(=O)(O)OP(=O)(O)OC[C@H]1O[C@@H](n2cnc3c(N)ncnc32)[C@H](O)[C@@H]1OP(=O)(O)O)[C@@H](O)C(=O)NCCC(=O)NCCSC(=O)C(O)CCCC(=O)O
Described as above. The conditions noted are these: other: substrate of the dehydratase; pH 7.0. It is filed as biochemical, Clostridium symbiosum. On the procedure: as §2, §3

A short description of data set [6]: 2-Hydroxyglutaryl-CoA dehydratase activity in recombinant E. coli BL21. It counts as biochemical, C. symbiosum. The note with it: recombinant E. coli BL21, with activator. As to the method: as §2
(§4) The genes were transformed into modified E. coli BL21-CodonPlus (DE3). An overnight anaerobic preculture (100 ml) of a fresh single colony was used to inoculate 1 liter Standard I medium, described above, containing antibiotics (carbenicillin, 100 μg·ml^−1; chloramphenicol, 50 μg·ml^−1) and grown at the same conditions. When the culture reached OD578=0.2, gene expression was induced with isopropyl-1-thio-β-D-galactoside, IPTG (240 mg·liter^−1) and anhydrotetracycline, AHT (200 μg·liter^−1). […]
as §1

Data set [7] can be described thus: 2-Hydroxyglutarate dehydrogenase activity in recombinant E. coli BL21. It is filed as biochemical, A. fermentans. On the procedure: 2-Hydroxyglutarate dehydrogenase activity was measured at ambient temperature in cuvettes of 0.5 ml total volume containing 0.1 M Tris/HCl pH 8.0, 0.2 mM NADH and 2-hydroxyglutarate dehydrogenase at room temperature. After addition of 1 mM α-ketoglutarate, the absorbance decrease of NADH was monitored at 340 nm (ε=6.3 mM^−1 cm^−1) (Bresser J (1997) (R)-2-Hydroxyglutarat-Dehydrogenase aus Acidaminococcus fermentans. PhD Thesis, Philipps-Universitä t Marburg, Germany; Martins B M, Macedo-Ribeiro S, Bresser J, Buckel W, Messerschmidt A (2005) Structural basis for stereo-specific catalysis in NAD^+-dependent (R)-2-hydroxyglutarate dehydrogenase from Acidaminococcus fermentans. Febs J 272:269-281).
as §4, §1

With `C=CC(=O)O` [acrylate], in data set [1], the “Substrate of the enzyme” value was “acts on”.

For `O=C(O)/C=C/CC(=O)O` [(E)-glutaconate], the “Substrate of the enzyme” value in data set [1] is on record as “acts on”. In the case of `O=C(O)CCCCC(=O)O` [adipate], the “Substrate of the enzyme” value in data set [1] was “acts on”. For `CCC(=O)O` [propionate], the “Substrate of the enzyme” value in data set [1] is given as “acts on”. With `CC(=O)O` [acetate], the “Substrate of the enzyme” value in data set [1] is recorded as “acts on”.

With `O=C(O)CC[C@@H](O)C(=O)O` [(R)-2-hydroxyglutarate], in data set [1], the “Substrate of the enzyme” value is on record as “acts on”.

B1: Glutaconate CoA-transferase: enzyme from A. fermentans (gctAB) expressed in recombinant E. coli BL21 (protein)
chain 1: LSKVMTLKDAIAKYVHSGDHIALGGFTTDRKPYAAVFEILRQGITDLTGLGGAAGGDWDMLIGNGRVKAYINCYTANSGVTNVSRRFRKWFEAGKLTMEDYSQDVIYMMWHAAALGLPFLPVTLMQGSGLTDEWGISKEVRKTLDKVPDDKFKYIDNPFKPGEKVVAVPVPQVDVAIIHAQQASPDGTVRIWGGKFQDVDIAEAAKYTIVTCEEIISDEEIRRDPTKNDIPGMCVDAVVLAPYGAHPSQCYGLYDYDNPFLKVYDKVSKTQEDFDAFCKEWVFDLKDHDEYLNKLGATRLINLKVVPGLGYHIDMTKEDK
chain 2: MADYTNYTNKEMQAVTIAKQIKNGQVVTVGTGLPLIGASVAKRVYAPDCHIIVESGLMDCSPVEVPRSVGDLRFMAHCGCIWPNVRFVGFEINEYLHKANRLIAFIGGAQIDPYGNVNSTSIGDYHHPKTRFTGSGGANGIATYSNTIIMMQHEKRRFMNKIDYVTSPGWIDGPGGRERLGLPGDVGPQLVVTDKGILKFDEKTKRMYLAAYYPTSSPEDVLENTGFDLDVSKAVELEAPDPAVIKLIREEIDPGQAFIQVPTEAK
modifications: Acidaminococcus fermentans
notes: enzyme from A. fermentans (gctAB) expressed in recombinant E. coli BL21
As to B1, in data set [2], the “Activity, U” value amounted to 0.71 U and the “Specific activity, U/mg” value is on record as 0.25 U/mg.

B2: 2-Hydroxyglutaryl-CoA dehydratase from Clostridium symbiosum and activator from Acidaminococcus fermentans ([Clostridium] symbiosum) (protein)
chain 1: MAKQVSPGVLALRKVVDDVHKEAREAKARGELVGWSSSKFPCELAAAFDLNVMYPENQAAGIAANRYGEMMCQAAEDLGYDNDICGYARISLAYAAGVRVSRKYDAETGEYIIDPATGKPLKDAEGNVVIDEATGKPKKDPKTQTPYLVLDNLLEIEALPDGPEKERRLEAISPIRQMRIPQPDFVLCCNNICNCMTKWYENIARMCNVPLIMIDIPYNNTVEVHDDNVKYVRAQFDKAIKQLEELTGKKFDEKKFEKACSNANRTAQAWLKVCDYLQYKPAPYSGFDLFNHMADVVTARARVEAAEAFELLADDLEETVKKGETTTPFPEKYRVMFEGIPCWPKLPNLFKPLKEHGVNVTAVVYAPAFGFVYNNIDEMARAYYKAPNSVCIEQGVDWREGICRDNKVDGVLVHYNRSCKPWSGYMAEMQRRFTEDLGVPCAGFDGDQADPRNFNAAQYETRVQGLVEAMEANKQAKEAK
chain 2: MSINALLDEFKVKAATPKQQLAEYKAQGKKVIGVLPYYAPEELVYAAGMVPMGIWGSNNKTISRAKEYCATFYCTIAQLALEMLLDGTMDQLDGIITPTICDTLRPMSQNFRVAMGDKMAVIFLAQPQNRFEDFGLQFSVDQYTNVKKELEKVAGKEITNEAIQDAIKVYNKSRAARRKFVELASAHCDVITPTKRSAVLKSFFFMEKPEYIEKLEELNAELEKLPVCDWQGTKVVTSGIICDNPKLLEIFEENNIAIAADDVGHESRSFRVDAPEDEADALMALAKQFANMDYDVLLYDPKSTENRRGEFIANMVKESGAQGLVLFMQQFCDPEEMEYPYLKKALNNAGIPHIKLGIDQQMRDFGQASTAIQAFADVLEMQK
As a reminder, the Km is the substrate concentration at which the rate is half of its maximum. Usually kcat stands for the maximal rate divided by the concentration of active sites. Consider B2, for which the Km in data set [3] is 52 µM; in data set [4], 570 µM; in data set [5], 100 µM. Besides, the figures for the turnover number (kcat) in data set [3], in data set [4] and in data set [5] were 83 s⁻¹, 1.9 s⁻¹ and 17.4 s⁻¹, respectively.

B3: 2-Hydroxyglutaryl-CoA dehydratase + activator: dehydratase (hgdAB) from C. symbiosum with activator (hgdC) from A. fermentans, expressed in E. coli BL21 (protein, listed as Clostridium symbiosum)
chain 1: B2 chain 1
chain 2: B2 chain 2
chain 3: MSIYTLGIDVGSTASKCIILKDGKEIVAKSLVAVGTGTSGPARSISEVLENAHMKKEDMAFTLATGYGRNSLEGIADKQMSELSCHAMGASFIWPNVHTVIDIGGQDVKVIHVENGTMTNFQMNDKCAAGTGRFLDVMANILEVKVSDLAELGAKSTKRVAISSTCTVFAESEVISQLSKGTDKIDIIAGIHRSVASRVIGLANRVGIVKDVVMTGGVAQNYGVRGALEEGLGVEIKTSPLAQYNGALGAALYAYKKAAK
modifications: Acidaminococcus fermentans
For the molecule B3, in data set [6], the “Activity, U” value was 0.23 U and the “Specific activity, U/mg” value was 0.80 U/mg.

B4: 2-Hydroxyglutarate dehydrogenase: enzyme from A. fermentans (hgdH) expressed in recombinant E. coli BL21 (protein)
chain: MKVLCYGVRDVELPIFEACNKEFGYDIKCVPDYLNTKETAEMAAGFDAVILRGNCFANKQNLDIYKKLGVKYILTRTAGTDHIDKEYAKELGFPMAFVPRYSPNAIAELAVTQAMMLLRHTAYTTSRTAKKNFKVDAFMFSKEVRNCTVGVVGLGRIGRVAAQIFHGMGATVIGEDVFEIKGIEDYCTQVSLDEVLEKSDIITIHAPYIKENGAVVTRDFLKKMKDGAILVNCARGQLVDTEAVIEAVESGKLGGYGCDVLDGEASVFGKDLEGQKLENPLFEKLVDLYPRVLITPHLGSYTDEAVKNMVEVSYQNLKDLAETGDCPNKIK
modifications: Acidaminococcus fermentans
notes: enzyme from A. fermentans (hgdH) expressed in recombinant E. coli BL21
With B4, in data set [7], the “Activity, U” value was 730 U and the “Specific activity, U/mg” value is recorded as 250 U/mg.
